Test results from patent US20260151521A1.

Experiments:
[1] = molecular target: human PD-L1 (full-length, expressed on cells) (human) (UniProt Q9NZQ7); assay: immunoreactivity, Study 1: MC38-cOVA/eGFP-mPD-L1-/-hPD-L1Tg cells, cell-bound activity against standards
[2] = molecular target: human PD-L1 (full-length, expressed on cells) (human) (UniProt Q9NZQ7); assay: immunoreactivity, Study 3: LOX-IMVI cells (endogenous human PD-L1), cell-bound activity against standards
[3] = molecular target: human PD-L1 (full-length, expressed on cells) (human) (UniProt Q9NZQ7); assay: immunoreactivity, Study 3: 20 ng 89Zr antibody on 30x10^6 LOX-IMVI cells (endogenous human PD-L1), gamma counter
[4] = molecular target: human PD-L1 (full-length, expressed on cells) (human) (UniProt Q9NZQ7); assay: immunoreactivity, Study 3: 20 ng 89Zr antibody on 15x10^6 MC38-cOVA/eGFP-mPD-L1-/-hPD-L1Tg cells, gamma counter
[5] = molecular target: human PD-L1 (full-length, expressed on cells) (human) (UniProt Q9NZQ7); assay: immunoreactivity on MC38/mPD-L1-/-/hPD-L1 cells
[6] = molecular target: human PD-L1 (full-length, expressed on cells) (human) (UniProt Q9NZQ7); assay: immunoreactivity, Study 3: MC38-cOVA/eGFP-mPD-L1-/-hPD-L1Tg cells, cell-bound activity against standards
[7] = molecular target: human PD-L1 (full-length, expressed on cells) (human) (UniProt Q9NZQ7); assay: immunoreactivity, Study 1: 20 ng 89Zr antibody on 15x10^6 MC38-cOVA/eGFP-mPD-L1-/-hPD-L1Tg cells, gamma counter
[8] = molecular target: human PD-L1 (full-length, expressed on cells) (human) (UniProt Q9NZQ7); assay: flow cytometry, ex vivo MC38-cOVA/eGFP-mPD-L1-/-hPD-L1Tg tumor cells (Tumor 2) ~3 weeks post implantation in nude mice, antibody at 20 ug/mL
[9] = molecular target: human PD-L1 (full-length, expressed on cells) (human) (UniProt Q9NZQ7); assay: flow cytometry, dose titration of staining on untreated MC38-cOVA/eGFP-mPD-L1-/-hPD-L1Tg cells
[10] = molecular target: human PD-L1 (full-length, expressed on cells) (human) (UniProt Q9NZQ7); assay: flow cytometry, ex vivo LOX-IMVI tumor cells (Tumor 2) ~3 weeks post implantation in nude mice, antibody at 20 ug/mL
[11] = molecular target: human PD-L1 (full-length, expressed on cells) (human) (UniProt Q9NZQ7); assay: flow cytometry, dose titration of staining on untreated LOX-IMVI cells
[12] = molecular target: human PD-L1 (full-length, expressed on cells) (human) (UniProt Q9NZQ7); assay: flow cytometry, ex vivo LOX-IMVI tumor cells (Tumor 1) ~3 weeks post implantation in nude mice, antibody at 20 ug/mL
[13] = molecular target: human PD-L1 (full-length, expressed on cells) (human) (UniProt Q9NZQ7); assay: flow cytometry, dose titration of staining on MC38-cOVA/eGFP-mPD-L1-/-hPD-L1Tg cells treated overnight with 100 ng/mL mIFNγ
[14] = molecular target: human PD-L1 (full-length, expressed on cells) (human) (UniProt Q9NZQ7); assay: flow cytometry, dose titration of staining on LOX-IMVI cells treated overnight with 100 ng/mL hIFNγ
[15] = molecular target: human PD-L1 (full-length, expressed on cells) (human) (UniProt Q9NZQ7); assay: flow cytometry, dose titration on LOX-IMVI and MC38-cOVA/eGFP-mPD-L1-/-hPD-L1Tg cells with or without IFNgamma
[16] = molecular target: human PD-L1 (full-length, expressed on cells) (human) (UniProt Q9NZQ7); assay: flow cytometry, ex vivo MC38-cOVA/eGFP-mPD-L1-/-hPD-L1Tg tumor cells (Tumor 1) ~3 weeks post implantation in nude mice, antibody at 20 ug/mL

Sequence of UniProt Q9NZQ7 (Q9NZQ7 19-290): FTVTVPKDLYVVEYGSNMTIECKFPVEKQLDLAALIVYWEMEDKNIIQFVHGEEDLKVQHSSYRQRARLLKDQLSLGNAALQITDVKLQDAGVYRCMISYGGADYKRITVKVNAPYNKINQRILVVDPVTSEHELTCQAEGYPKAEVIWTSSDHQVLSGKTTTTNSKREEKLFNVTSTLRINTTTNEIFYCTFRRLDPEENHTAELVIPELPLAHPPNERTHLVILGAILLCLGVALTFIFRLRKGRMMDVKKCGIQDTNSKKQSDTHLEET

89Zr labeled DFO-conjugated isotype control antibody
Percent IR (immunoreactivity) [1]: 0.5%
Percent IR (immunoreactivity) [2]: 0.7%
cell pellet activity [3]: 65.4
cell pellet activity [4]: 68
Immunoreactivity [5]: 8.8%
Percent IR (immunoreactivity) [6]: 0.7%
cell pellet activity [7]: 29.6

fluorochrome directly conjugated anti-human PD-L1 antibody (eBioscience, clone MIH1)
Mean fluorescence intensity [8]: 51400
EC50 (read off the curve) [9]: 30 nM
Mean fluorescence intensity [10]: 12100
EC50 (read off the curve) [11]: 20 nM
Mean fluorescence intensity [12]: 8480
EC50 (read off the curve) [13]: 30 nM
EC50 (read off the curve) [14]: 20 nM
antibody concentration at which median fluorescence intensity reached the plateau [15]: 150 nM
Mean fluorescence intensity [16]: 49600
